From paper PMC8739950, “The MocR/GabR Ectoine and Hydroxyectoine Catabolism Regulator EnuR: Inducer and DNA Binding” (Frontiers in Microbiology, 2021)
Read-outs that look alike come from different tables or passages of the source. Blank lines part the entries; values can stand above or below the molecule they belong to.

How the values were obtained:
EnuR [1] = biological target: T1, EnuR (Ruegeria pomeroyi, UniProt Q5LUA6); experiment: microscale thermophoresis; format: binding
T1 construct: gene gntR; full-length EnuR with C-terminal Strep-tag-II, PLP-containing
T1 sequence (Q5LUA6 1-464): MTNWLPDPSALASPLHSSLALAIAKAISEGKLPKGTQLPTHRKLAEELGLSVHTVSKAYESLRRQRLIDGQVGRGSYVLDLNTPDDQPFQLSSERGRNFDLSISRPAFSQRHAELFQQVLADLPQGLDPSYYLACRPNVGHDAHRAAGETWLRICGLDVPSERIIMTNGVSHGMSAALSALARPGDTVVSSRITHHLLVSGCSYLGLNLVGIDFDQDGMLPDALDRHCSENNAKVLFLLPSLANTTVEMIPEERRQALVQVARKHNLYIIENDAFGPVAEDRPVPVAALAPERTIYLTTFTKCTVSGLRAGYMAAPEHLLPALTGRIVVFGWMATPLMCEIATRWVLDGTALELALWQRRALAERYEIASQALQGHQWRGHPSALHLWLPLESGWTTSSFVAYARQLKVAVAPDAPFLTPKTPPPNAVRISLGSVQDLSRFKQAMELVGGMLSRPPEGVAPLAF

EnuR [2] = biological target: T2, EnuR (Ruegeria pomeroyi, UniProt Q5LUA6); experiment: microscale thermophoresis; format: binding; remark: listed apart in the source
T2 construct: gene gntR; full-length EnuR with C-terminal Strep-tag-II, PLP-containing

[3] = biological target: C-terminal aminotransferase domain (ATD) of wild-type EnuR from Ruegeria pomeroyi DSS-3, Strep-tag II fusion (Ruegeria pomeroyi DSS-3); experiment: SEC; HiLoad 16/600 Superdex 200 pg column; masses estimated against marker proteins (thyroglobulin, alcohol dehydrogenase, bovine albumin, carbonic anhydrase); quaternary assembly of the Strep-Tactin purified proteins
[4] = biological target: C-terminal aminotransferase domain of the EnuR* (Lys302His) mutant from Ruegeria pomeroyi DSS-3, Strep-tag II fusion (Ruegeria pomeroyi DSS-3); experiment: as above
[5] = biological target: Ectoine nutrient utilization regulator (EnuR) from Ruegeria pomeroyi DSS-3, full-length wild type, EnuR-Strep-tag II (Ruegeria pomeroyi DSS-3); experiment: as above
[6] = biological target: EnuR* (Lys302His) mutant of full-length EnuR from Ruegeria pomeroyi DSS-3, EnuR*-Strep-tag II (Ruegeria pomeroyi DSS-3); experiment: as above
[7] = test system: EnuR (C-terminal Strep-tag II fusion, PLP-bound) (Ruegeria pomeroyi DSS-3); experiment: MST; conditions: PLP-containing EnuR, 200 nM; MST: 10 mM Tris-HCl pH 7.5, 150 mM NaCl, 0.07% Tween20, 21 C; 200 nM NT-647-labeled EnuR titrated with DNA

Molecule: CC(=O)N[C@H](C(=O)O)[C@@H](O)CN [hydroxy-α-ADABA]
Kd (EnuR [1]): 0.43 ± 0.2 µM

Molecule: CC(=O)N[C@@H](CCN)C(=O)O [α-ADABA]
Kd (EnuR [2]): 2.55 ± 0.5 µM

Molecule: C-terminal aminotransferase domain (ATD) of wild-type EnuR from Ruegeria pomeroyi DSS-3, Strep-tag II fusion (domain or fragment)
stoichiometry N [3]: 2

Molecule: TAACATTGTCGCGCGACAATAAAAAAATTGACATGCAGTACAATTCCC (double strand) [MST BS WT 48 bp promoter/operator fragment]
Kd [7]: 1.9 µM

Other lines, results leading:

stoichiometry N [4]: 2
Molecule: C-terminal aminotransferase domain of the EnuR* (Lys302His) mutant from Ruegeria pomeroyi DSS-3, Strep-tag II fusion (domain or fragment)

stoichiometry N [5]: 2
Molecule: Ectoine nutrient utilization regulator (EnuR) from Ruegeria pomeroyi DSS-3, full-length wild type, EnuR-Strep-tag II (natural protein)

stoichiometry N [6]: 2
Molecule: EnuR* (Lys302His) mutant of full-length EnuR from Ruegeria pomeroyi DSS-3, EnuR*-Strep-tag II (natural protein)
